Assay: yeast display, Sf9 membrane polyspecificity reagent, FACS + sequencing; frameworks hold sequencing errors
Outline: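 In a synthetic yeast display library (Saccharomyces cerevisiae BJ5465), nanobody expression was induced with galactose for 36–48 hours. FACS gates were set low and high (top ~1%) using anti-HA fluorescence for expression and streptavidin fluorescence for binding of the Sf9 membrane reagent. Each polyreactivity label is drawn from the gate of origin.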

Row | Sequence | polyreactivity (PSR sort gate)
1 | QVQLVESGGGLVQAGGSLRLSCAASGLTFFGYTMGWYREAPGKEREFVADITWSGGSTYYADSVKGRFTISRDNAKNTVYLQMNSLKPEDTAVYYCSVAPPNWDPFVDDTYLMDYWGQGTQVTVSS | low polyreactivity
2 | QVQLVESGGGLVQAGGSLRLSCAASGLTFGDYAMGWYRQAPGKERELVAVISRSGGSTYYADSVKGRFTISRDNAKNTVYLQMNSLKTEDTAVYYCDKDAGLQKYHHDYWGQGTQVTVSS | low polyreactivity
3 | QVQLVESGGGLVQAGGSLRLSCAASGLTFGFNAMGWYRQAPWKERELDAAISSGGSTYYADSVKGRFTISRDNAKNTVYLQMNSLKPEDTAVYYCAKSGGSSQYWYGYWGQGTQVTVSS | high polyreactivity
4 | QVQLVESGGGLVQAGGSLRLSCAASGLTFGLYAMGWYRQAPGKERELVAVITAGGRTYYADSVKGRFTISRDNAKNTVYLQMNSLKPEDTAVYYCATVNYGSGRGYRRVYTAYYYWGQGTQVTVSS | low polyreactivity
5 | QVQLVESGGGLVQAGGSLRLSCAASGLTFGRNAMGWYRQAPWKERELVAAISRSGGRTSYADSVKGRFTISRDNAKNTVYLQMNSLKPEDTAVYYCAARSDVYTHDYWGQGTQVTVSS | high polyreactivity
6 | QVQLVESGGGLVQAGGSLRLSCAASGLTFGSYAMGWYRQAPGKERELVAAISRSGGSTYYADSVKGRFTISRDNAKNTVYLQMNSLKPEDTAVYYCNAVNPYYAPTDRRVGYDYWGQGTQVTVSS | high polyreactivity
7 | QVQLVESGGGLVQAGGSLRLSCAASGLTFGSYTMGWYRQAPGRERDLVAAITSDGSTNYADSVKGRFTISRDNAKNTVYLQMNSLKPEDTAVYYCNKGETLYGSVPYDYWGQGTQVTVSS | high polyreactivity
8 | QVQLVESGGGLVQAGGSLRLSCAASGLTFGVNAMGWYRQAPGKERELVAAISGSGGRTNYADSVKGRFTISRDNAKNTVYLQMNSLKPEDTAVYYCNARFPDWALSEISHSTTYGYWGQGTQVTVSS | low polyreactivity
9 | QVQLVESGGGLVQAGGSLRLSCAASGLTFGWNAMGWYRQAPGKERELVAGITSDTITHYADSVKGRFTISRDNAKNTVYLQMNSLKPEDTAVYYCAVPRGVASLQKVEFGYWGQGTQVTVSS | low polyreactivity
10 | QVQLVESGGGLVQAGGSLRLSCAASGLTFGYYAMGWYRQAPGKEREFVASITWSGGTTYYADSVKGRFTISRDNAKNTVYLQMNSLKPEDTAVYYCAAQRSYAYEYWGQGTQVTVSS | high polyreactivity
11 | QVQLVESGGGLVQAGGSLRLSCAASGLTFGYYSMGWYREAPGKERELVAAITYSGGSTYYADSVKGRFTISRDNAKNTVYLQMNSLKPEDTAVYYCAAEGPVYTTYEYWGQGTQVTVSS | low polyreactivity
12 | QVQLVESGGGLVQAGGSLRLSCAASGLTFGYYVMGWYRQAPGKERELVAAISFRGVSTYYADSVKGRFTISRDNAKKTVDLQMNSLKPEDTAVNYCARRYTSKGGYDYWGQGTQVTVSS | high polyreactivity
13 | QVQLVESGGGLVQAGGSLRLSCAASGLTFHRYAMGWYRQAPGKERELVAAINYSGGRTYYADSVKGRFTISRDNAKNTLYLQMNSLKPEDTAVYYCAAPRASGYYWGQGTQVTVSS | high polyreactivity
14 | QVQLVESGGGLVQAGGSLRLSCAASGLTFHYYAMGWYRQAPGKERELVAAITATYYADSVKGRFTISRDNAKNTVYLQMNSLKPEDTAVYYCNAFLYPKQPLSPPDPTFEGGYWGQGTQVTVSS | low polyreactivity
15 | QVQLVESGGGLVQAGGSLRLSCAASGLTFIEYAKGWYRQAPGKERELVAAISSGGRTYYADSVKGRFTISRDNAKNTVYLQMNSLKPEDTAVYYCNARGYRRWYNYWGQGTQVTVSS | high polyreactivity
16 | QVQLVESGGGLVQAGGSLRLSCAASGLTFIFYAMGWYRQAPGKERELVATIRRSGSTYYADSVKGRFTISRDNAKNTVYLQMNSLKPEDTAVYYCNARYPYSYGDYWGQGTQVTVSS | high polyreactivity
17 | QVQLVESGGGLVQAGGSLRLSCAASGLTFIYYAMGWYRQAPGKERELVAAISVSGGSTSYADSVKGRFTISRDNAKNTVYLQMNSLKPEDTAVYYCAADWFVHKPRYQYSFDYWGQGTQVTVSS | low polyreactivity
18 | QVQLVESGGGLVQAGGSLRLSCAASGLTFKDNAMGWYRQAPGKERELVAAISKGGGSTFYADSVKGRFTISRDYAKNTVYFQMNSLKPEDTAVYYCNADVGYRGGEEVYWGQGTQVTVSS | low polyreactivity
19 | QVQLVESGGGLVQAGGSLRLSCAASGLTFKLYVMGWYRQAPRKERELVAAISGGGSTYYADSVKGRFTISRDNAKNTVYLQMYSLKPEDTAVYYCAAVRYFEYEYWGQGTQVTVSS | low polyreactivity
20 | QVQLVESGGGLVQAGGSLRLSCAASGLTFKSYAMGWYRQAPGKETELVAAISWRGGRTYYADSVKGRFTISRDNAKNTVYLQMNSLKPEDTAVYYCNARSQQWWLSRYNYWGQGTQVTVSS | high polyreactivity
21 | QVQLVESGGGLVQAGGSLRLSCAASGLTFKTYAMGWYRQAPGKERELVAAISRSGGSTSYADSVKGRFTISRDNAKNTVYLQLNSLIPEDTEVYYCAAKTYEPRKYDYWGQGTQVTVSS | high polyreactivity
22 | QVQLVESGGGLVQAGGSLRLSCAASGLTFKYNAMGWYRQAPGKERELVAGISWSTSSTYYADSVKGRFTISRDNAKNTVYLQMNSLKPEDTAVYYCAVYTITGRVLRQGPLYRHYYWGQGTQVTVSS | high polyreactivity

Row | Sequence | polyreactivity (PSR sort gate)
23 | QVQLVESGGGLVQAGGSLRLSCAASGLTFKYYAMGWYRQAPGKERELVAAITATGGRTYYADSVKGRFTISRDIAKNTVYLQLNSLNPEDTAVYYCNARQYQTYYFYKHDYWGQGTQVSVSS | high polyreactivity
24 | QVQLVESGGGLVQAGGSLRLSCAASGLTFLGNAMGWYRQAPGKERELVASITFSGDSTYYADSVKGRFTISRDNAKNSVYLQMNSVKPEDTAVYYCAADGSRLYYWPFEYDYWGQGTQVTVSS | low polyreactivity
25 | QVQLVESGGGLVQAGGSLRLSCAASGLTFLIYAMGWYIQAPRKERELVASITGRGGSTYYADSVKGRFTISRDNAKNTVYLQMNCLKPEDTAVYYCAASLRYYGLEMDYWGQGTQVTVSS | high polyreactivity
26 | QVQLVESGGGLVQAGGSLRLSCAASGLTFNGYTMGWYRQAPGKERELVAGITHSGSTTYTDSVKGRFTISRDNAKNTVYLQMNSLKPEDTAVYYCNARLGKVRVKDDYWGQGTQVTVSS | low polyreactivity
27 | QVQLVESGGGLVQAGGSLRLSCAASGLTFNLYAMGWYRQAPGKEWELVAAITRNGGSTYYADSVKGPFTISRDNAKNSVYLELNSLKPEDTAVYYCATGWLGTPYGYRRFGYWGQGTQVTVSS | high polyreactivity
28 | QVQLVESGGGLVQAGGSLRLSCAASGLTFNRNAMGWYRQAPGKERELVARISRGGSTNYADSVKGRFTISRDNAKNTVYLQMNSLKPEDTAVYYCAKRGNPRSVVHYNSWGQGTQVTVSS | high polyreactivity
29 | QVQLVESGGGLVQAGGSLRLSCAASGLTFNVYAMGWYRQAPGKERELVAAITRSTGRTYYADSVKGRFTISRDNAKNTVYLQMNSLIPEDTAVYYCNRVSRQYYYQRGFEYDYWGQGTQVTVSS | high polyreactivity
30 | QVQLVESGGGLVQAGGSLRLSCAASGLTFNWNAMGWYRQAPGKERELVAAIRSSGGSTYADSVKGRFTISRDNAKNTVYLQMNSLKPEDTAVYYCAARSRVPPAGPRYDYWGQGTQVTVSS | high polyreactivity
31 | QVQLVESGGGLVQAGGSLRLSCAASGLTFNYYDMGWYRQAPGKERELVAAISRSGTNTSYADSVKGRFTISRDNAKNTVYLQMNSLKPEDTAVYYCNAAGVYLAAGPFTANFNYNYWGQGTQVTVSS | low polyreactivity
32 | QVQLVESGGGLVQAGGSLRLSCAASGLTFPGYVMGWYRQAPGKERELVAAITNGGRTYYADSVKGRFTISRDNAMNTVYLQMNSLKPEDTAVYYCNTARGSKDPPHYYWGQGTQVTVSS | high polyreactivity
33 | QVQLVESGGGLVQAGGSLRLSCAASGLTFPKYAMGWYRQAPGKERELVAAITQRGGSTYYADSVKGRFTISRDNAKNTVYLQMNSLNPEDTAVYYSNARRRDYNNRREFDYWGQGTQVTVSS | high polyreactivity
34 | QVQLVESGGGLVQAGGSLRLSCAASGLTFPPYAMGWSRQAPGNERELVAAISRIRGRTYYADSVKGRFTISRDTAKNTVYLQMNSLKPEDTAVYYCAADGIKGGDEYDYWGQGTQVTVSS | high polyreactivity
35 | QVQLVESGGGLVQAGGSLRLSCAASGLTFPPYAMGWYRQAPGKERELVAAISWNGGNTYYADSVKGRFTISRDNAKNTVYLQMNSLKPEDTAVYYCAAKRGTQGMYYWGQGTQVTVSS | high polyreactivity
36 | QVQLVESGGGLVQAGGSLRLSCAASGLTFPSYAMGWSRQAPGKERELVAAISRRSGSTYYADSVKGRFTICGDNAKYTVYLQMISLKPEDTAVYYCTTRRGERGYWGQGTQVTVSS | high polyreactivity
37 | QVQLVESGGGLVQAGGSLRLSCAASGLTFPSYAMGWYRQAPGKERELVAVISSSGGRTYYADSVKGRFTISRDNAKNTVYLQMNSLIPEDTAVYYCNVGGFLRRRSYDYWGQGTQVTVSS | high polyreactivity
38 | QVQLVESGGGLVQAGGSLRLSCAASGLTFPYNLMGWYRQAPGKERELVASITSVGTTDYADSVKGRFTISRDNAKNTVYLQMNSLKPEDTAVYYCAADVTMFYWWYGKEDYDFWGQGNQVTVSS | low polyreactivity
39 | QVQLVESGGGLVQAGGSLRLSCAASGLTFQHYAMGWYRQAPGKERELVASISYSGGGTYADSVKGRFTISRDNAKNTVYLQMNSQKPEDTAVYYCATSLQRQFDYWGQGTQVTVSS | low polyreactivity
40 | QVQLVESGGGLVQAGGSLRLSCAASGLTFQLYGMGWYRQAPGKERELVAAISGSGGRTYYADSVKGRFTISRDNAKNTVYLQMNSLKPEDTAVYYCAARPGSGRSYTSDYWGQGTQVNVSS | high polyreactivity
41 | QVQLVESGGGLVQAGGSLRLSCAASGLTFQSNAMGWYRQAPGKEREFVAAITSGGNTYYADSVKGRFTISRDNAKNTVYLQMNSLKPEDTAVYYCNADYQDEEDDYWGQGTQVTVSS | low polyreactivity
42 | QVQLVESGGGLVQAGGSLRLSCAASGLTFQVYAMGWYRQAPGKERELVAGITRAGSTYYADSVKGRFTISRDNAKNTVYLQMNSLKPEDTAVYYCAARQPPPYYYWGQGTQVNVSS | high polyreactivity
43 | QVQLVESGGGLVQAGGSLRLSCAASGLTFQYYAMGWYRQAPGKEREFVAAITRRGGNTYYADSVKGRFTISRDNAKNTVYLQMNSLKPEDTAVYYCAARYLQGRYDYWGQGTQVTVSS | high polyreactivity
